Test results published in patent publication US20230272055A1 (Incyte, published 2023).

target: T1, Recombinant MBP-mutCALR Type 1 fusion protein (human); assay: SPR, IgG captured, 1:1 fit, Exp. 2
T1 construct: custom made at Cepter; also called recombinant mutCALR protein
Experimental: Experiment 2: Recombinant MBP-mutCALR Type 1 fusion protein was custom made at Cepter (cepterbiopartners.com). Data for the interaction of antibodies with recombinant mutCALR protein were collected at 25° C. on a Biacore 8K instrument (Cytiva, Marlborough, Mass.), and all reagents were obtained from Cytiva unless otherwise specified. The experiments were conducted using Tris-buffered saline (pH 7.2), 0.005% Surfactant P20, 1 mM CaCl₂) as running buffer. To prepare the capture surfaces, anti-human IgG (Fc) antibodies (Product #29234600) was amine-coupled onto a CM4 chip (Product #BR100534) under standard conditions using an Amine Coupling Kit (Product #BR100050). […] The kinetics parameters were obtained by applying 1:1 binding model to fit the data from multiple-cycle injection experiments using Biacore Insight Evaluation software.

Binder	Kd	koff	kon
anti-mutCALR antibody clone 134 (antibody, human IgG1, lambda, N297A, human IgG1 N297A variant of clone 15) heavy: not shown light: SYVLTQPPSVSVAPGKTARITCGGDNIGSKSVHWYQQKPGQAPVLVVYDDSDRPSGIPERFSGSNSGNTATLTISRVEAGDEADYYCQVWDSSNDLLIFGGGTKLTVLGQPKAAPSVTLFPPSSEELQANKATLVCLISDFYPGAVTVAWKADSSPVKAGVETTTPSKQSNNKYAASSYLSLTPEQWKSHRSYSCQVTHEGSTVEKTVAPTECS	1.12 nM	0.00142 s⁻¹	1.27e+06 M⁻¹ s⁻¹
anti-mutCALR antibody clone 135 (antibody, human IgG1, lambda, N297A, V domains shown, human IgG1 N297A variant of clone 15) VH: EVQLVQSGAEVKKPGASVKVSCKVSGYTLTELSMQWVRQAPGKGLEWMGGFDPDAGETMYAEKFQGRLTVTEDTSTDTVYMELRSLTSEDTALYFCATSPGYDFFDYWGQGTLVTVSS VL: SYVLTQPPSVSVAPGKTARITCGGDNIGSKSVHWYQQKPGQAPVLVVYDDSDRPSGIPERFSGSNSGNTATLTISRVEAGDEADYYCQVWDSSNDLLIFGGGTKLTVLG	5.17 nM	0.00512 s⁻¹	991000 M⁻¹ s⁻¹
anti-mutCALR antibody clone 136 (antibody, human IgG1, lambda, N297A, V domains shown, human IgG1 N297A variant of clone 15) VH: EVQLVQSGAEVKKPGASVKVSCKVSGYTLTELSMQWVRQAPGKGLEWMGGFDPDSGETMYAEKFQGRLTVTEDTSTDTVYMELRSLTSEDTALYFCATSPGYDFFDYWGQGTLVTVSS VL: SYVLTQPPSVSVAPGKTARITCGGDNIGSKSVHWYQQKPGQAPVLVVYDDSDRPSGIPERFSGSNSGNTATLTISRVEAGDEADYYCQVWDSSNDLLIFGGGTKLTVLG	6.7 nM	0.00507 s⁻¹	756000 M⁻¹ s⁻¹
anti-mutCALR antibody clone 137 (antibody, human IgG1, lambda, N297A, V domains shown, human IgG1 N297A variant of clone 15) VH: EVQLVQSGAEVKKPGASVKVSCKVSGYTLTELSMQWVRQAPGKGLEWMGGFDPDEGETMYAEKFQGRLTVTEDTSTDTVYMELRSLTSEDTALYFCATSPGYDFFDYWGQGTLVTVSS VL: SYVLTQPPSVSVAPGKTARITCGGDNIGSKSVHWYQQKPGQAPVLVVYDDSDRPSGIPERFSGSNSGNTATLTISRVEAGDEADYYCQVWDSSNDLLIFGGGTKLTVLG	1.27 nM	0.0095 s⁻¹	7.51e+06 M⁻¹ s⁻¹
anti-mutCALR antibody clone 138 (antibody, human IgG1, lambda, N297A, V domains shown, human IgG1 N297A variant of clone 15) VH: EVQLVQSGAEVKKPGASVKVSCKVSGYTLTELSMQWVRQAPGKGLEWMGGFDPDDAETMYAEKFQGRLTVTEDTSTDTVYMELRSLTSEDTALYFCATSPGYDFFDYWGQGTLVTVSS VL: SYVLTQPPSVSVAPGKTARITCGGDNIGSKSVHWYQQKPGQAPVLVVYDDSDRPSGIPERFSGSNSGNTATLTISRVEAGDEADYYCQVWDSSNDLLIFGGGTKLTVLG	0.875 nM	0.00688 s⁻¹	7.86e+06 M⁻¹ s⁻¹
anti-mutCALR antibody clone 139 (antibody, human IgG1, lambda, N297A, V domains shown, human IgG1 N297A variant of clone 15) VH: EVQLVQSGAEVKKPGASVKVSCKVSGYTLTELSMQWVRQAPGKGLEWMGGFDPDDGETMYAEKFQGRLTVTEDTSTDTVYMELSSLRSEDTAVYFCATSPGYDFFDYWGQGTLVTVSS VL: SYVLTQPPSVSVAPGKTARITCGGDNIGSKSVHWYQQKPGQAPVLVVYDDSDRPSGIPERFSGSNSGNTATLTISRVEAGDEADYYCQVWDSSNDLLIFGGGTKLTVLG	0.966 nM	0.000953 s⁻¹	987000 M⁻¹ s⁻¹
anti-mutCALR antibody clone 140 (antibody, human IgG1, lambda, N297A, V domains shown, human IgG1 N297A variant of clone 15) VH: EVQLVQSGAEVKKPGASVKVSCKVSGYTLTELSMQWVRQAPGKGLEWMGGFDPDAGETMYAEKFQGRLTVTEDTSTDTVYMELSSLRSEDTAVYFCATSPGYDFFDYWGQGTLVTVSS VL: SYVLTQPPSVSVAPGKTARITCGGDNIGSKSVHWYQQKPGQAPVLVVYDDSDRPSGIPERFSGSNSGNTATLTISRVEAGDEADYYCQVWDSSNDLLIFGGGTKLTVLG	7.09 nM	0.00541 s⁻¹	763000 M⁻¹ s⁻¹
anti-mutCALR antibody clone 141 (antibody, human IgG1, lambda, N297A, V domains shown, human IgG1 N297A variant of clone 15) VH: EVQLVQSGAEVKKPGASVKVSCKVSGYTLTELSMQWVRQAPGKGLEWMGGFDPDSGETMYAEKFQGRLTVTEDTSTDTVYMELSSLRSEDTAVYFCATSPGYDFFDYWGQGTLVTVSS VL: SYVLTQPPSVSVAPGKTARITCGGDNIGSKSVHWYQQKPGQAPVLVVYDDSDRPSGIPERFSGSNSGNTATLTISRVEAGDEADYYCQVWDSSNDLLIFGGGTKLTVLG	4.47 nM	0.0187 s⁻¹	4.18e+06 M⁻¹ s⁻¹
anti-mutCALR antibody clone 142 (antibody, human IgG1, lambda, N297A, V domains shown, human IgG1 N297A variant of clone 15) VH: EVQLVQSGAEVKKPGASVKVSCKVSGYTLTELSMQWVRQAPGKGLEWMGGFDPDEGETMYAEKFQGRLTVTEDTSTDTVYMELSSLRSEDTAVYFCATSPGYDFFDYWGQGTLVTVSS VL: SYVLTQPPSVSVAPGKTARITCGGDNIGSKSVHWYQQKPGQAPVLVVYDDSDRPSGIPERFSGSNSGNTATLTISRVEAGDEADYYCQVWDSSNDLLIFGGGTKLTVLG	2.27 nM	0.00269 s⁻¹	1.19e+06 M⁻¹ s⁻¹
anti-mutCALR antibody clone 143 (antibody, human IgG1, lambda, N297A, V domains shown, human IgG1 N297A variant of clone 15) VH: EVQLVQSGAEVKKPGASVKVSCKVSGYTLTELSMQWVRQAPGKGLEWMGGFDPDDAETMYAEKFQGRLTVTEDTSTDTVYMELSSLRSEDTAVYFCATSPGYDFFDYWGQGTLVTVSS VL: SYVLTQPPSVSVAPGKTARITCGGDNIGSKSVHWYQQKPGQAPVLVVYDDSDRPSGIPERFSGSNSGNTATLTISRVEAGDEADYYCQVWDSSNDLLIFGGGTKLTVLG	1.31 nM	0.00753 s⁻¹	5.74e+06 M⁻¹ s⁻¹
anti-mutCALR antibody clone 170 (antibody, human IgG1, lambda, N297A, human IgG1 N297A variant of clone 17) heavy: not shown light: SYVLTQPPSVSVAPGQTARITCGGSDIGDEIVHWYQQKPGQAPVLVVYDDSDRPSGIPERFSGSNSGNTATLTISRAQAGDEADYYCQVWDSSSDHLIFGGGTKLTVLGQPKAAPSVTLFPPSSEELQANKATLVCLISDFYPGAVTVAWKADSSPVKAGVETTTPSKQSNNKYAASSYLSLTPEQWKSHRSYSCQVTHEGSTVEKTVAPTECS	0.419 nM	0.00179 s⁻¹	4.27e+06 M⁻¹ s⁻¹
anti-mutCALR antibody clone 171 (antibody, human IgG1, lambda, N297A, V domains shown, human IgG1 N297A variant of clone 17) VH: EVQLVQSGAEVKKPGASVKVSCKVSGYTLTELSMQWVRQAPGKGLEWMGGFDPDAGETMYAEKFQGRLTVTEDTSTDTVYMELRSLTSEDTALYFCATSPGYDFFDYWGQGTLVTVSS VL: SYVLTQPPSVSVAPGQTARITCGGSDIGDEIVHWYQQKPGQAPVLVVYDDSDRPSGIPERFSGSNSGNTATLTISRAQAGDEADYYCQVWDSSSDHLIFGGGTKLTVLG	1.65 nM	0.0109 s⁻¹	6.57e+06 M⁻¹ s⁻¹
anti-mutCALR antibody clone 172 (antibody, human IgG1, lambda, N297A, V domains shown, human IgG1 N297A variant of clone 17) VH: EVQLVQSGAEVKKPGASVKVSCKVSGYTLTELSMQWVRQAPGKGLEWMGGFDPDSGETMYAEKFQGRLTVTEDTSTDTVYMELRSLTSEDTALYFCATSPGYDFFDYWGQGTLVTVSS VL: SYVLTQPPSVSVAPGQTARITCGGSDIGDEIVHWYQQKPGQAPVLVVYDDSDRPSGIPERFSGSNSGNTATLTISRAQAGDEADYYCQVWDSSSDHLIFGGGTKLTVLG	2.24 nM	0.0025 s⁻¹	1.12e+06 M⁻¹ s⁻¹
anti-mutCALR antibody clone 173 (antibody, human IgG1, lambda, N297A, V domains shown) VH: EVQLVQSGAEVKKPGASVKVSCKVSGYTLTELSMQWVRQAPGKGLEWMGGFDPDEGETMYAEKFQGRLTVTEDTSTDTVYMELRSLTSEDTALYFCATSPGYDFFDYWGQGTLVTVSS VL: SYVLTQPPSVSVAPGQTARITCGGSDIGDEIVHWYQQKPGQAPVLVVYDDSDRPSGIPERFSGSNSGNTATLTISRAQAGDEADYYCQVWDSSSDHLIFGGGTKLTVLG	0.653 nM	0.00349 s⁻¹	5.35e+06 M⁻¹ s⁻¹
